Measured values as given in publication PMC5617202, “Structural and functional insights into the reaction specificity of catalase-related hydroperoxide lyase: A shift from lyase activity to allene oxide synthase by site-directed mutagenesis” (PLoS ONE, 2017).

substrate: CCCCC/C=C\C/C=C\C=C\[C@@H](C/C=C\CCCC(=O)O)OO; assay: purified protein; assay type: biochemical, Capnella imbricata; details: 50 mM Tris pH 8.0, 100 mM NaCl, 1 mM CaCl2, 20 °C, 5–50 μM substrate

| Molecule | Km [µM] | kcat [s⁻¹] | kcat/Km [M⁻¹ s⁻¹] |
| --- | --- | --- | --- |
| C. imbricata cHPL (catalase-related hydroperoxide lyase domain) (Capnella imbricata; S177L/Y176N) (protein, N-terminal cHPL domain of the HPL-LOX fusion protein, without the LOX domain; cHPL-His4 in pET11a; E. coli BL21(DE3), Ni-NTA; heme protein; monomer 45 kDa plus oligomers 440-670 kDa) MVWKNFGYEIFAEKFGKDELEKRIKDEHTAPPESPLFGSLKLKMKKEKFKILFTLRTTMEGFRRPTHTVATGGLGEITIVSDPKFPEHEFYRAGRKFPARLRHANLKLLDDAGSDARSFSIKFADNDSESPMDIVMNTGEANIFWNTSSFEDFVSSSAGESAAKEYVYKNPYYYYNLIEALRRAPETFAHLYYYSQLTMHFKAKDGKVRYCRYRAIPGDADIKEEEESGRLTEEEQRNVWIRSRHQNEKRPDDYLRKEYVERLGKGPVNYRLQIQIHEASPDDTATIFHAGIMWNKETHPWFDLAKVSIKTPLSPDVLERTSFNIVNQPESLGLLEAKSPEDYNSIGQIRVAVYKWIQHLRKLKVGSLVPTGQN | 3.9 ± 0.9 | 218 ± 13.8 | 5.6e+07 |
| C. imbricata cHPL (catalase-related hydroperoxide lyase domain) (Capnella imbricata; R56G) (protein, N-terminal cHPL domain of the HPL-LOX fusion protein, without the LOX domain; cHPL-His4 in pET11a; E. coli BL21(DE3), Ni-NTA; heme protein; monomer 45 kDa plus oligomers 440-670 kDa) MVWKNFGYEIFAEKFGKDELEKRIKDEHTAPPESPLFGSLKLKMKKEKFKILFTLGTTMEGFRRPTHTVATGGLGEITIVSDPKFPEHEFYRAGRKFPARLRHANLKLLDDAGSDARSFSIKFADNDSESPMDIVMNTGEANIFWNTSSFEDFVSSSAGESAAKEYVYKNPYYYYYSIEALRRAPETFAHLYYYSQLTMHFKAKDGKVRYCRYRAIPGDADIKEEEESGRLTEEEQRNVWIRSRHQNEKRPDDYLRKEYVERLGKGPVNYRLQIQIHEASPDDTATIFHAGIMWNKETHPWFDLAKVSIKTPLSPDVLERTSFNIVNQPESLGLLEAKSPEDYNSIGQIRVAVYKWIQHLRKLKVGSLVPTGQN | 19.0 ± 4.0 | 304 ± 22.8 | 1.6e+07 |
| C. imbricata cHPL (catalase-related hydroperoxide lyase domain) (Capnella imbricata; P65A) (protein, N-terminal cHPL domain of the HPL-LOX fusion protein, without the LOX domain; cHPL-His4 in pET11a; E. coli BL21(DE3), Ni-NTA; heme protein; monomer 45 kDa plus oligomers 440-670 kDa) MVWKNFGYEIFAEKFGKDELEKRIKDEHTAPPESPLFGSLKLKMKKEKFKILFTLRTTMEGFRRATHTVATGGLGEITIVSDPKFPEHEFYRAGRKFPARLRHANLKLLDDAGSDARSFSIKFADNDSESPMDIVMNTGEANIFWNTSSFEDFVSSSAGESAAKEYVYKNPYYYYYSIEALRRAPETFAHLYYYSQLTMHFKAKDGKVRYCRYRAIPGDADIKEEEESGRLTEEEQRNVWIRSRHQNEKRPDDYLRKEYVERLGKGPVNYRLQIQIHEASPDDTATIFHAGIMWNKETHPWFDLAKVSIKTPLSPDVLERTSFNIVNQPESLGLLEAKSPEDYNSIGQIRVAVYKWIQHLRKLKVGSLVPTGQN | 15.3 ± 2.5 | 40.3 ± 2.5 | 2.6e+06 |
| C. imbricata cHPL (catalase-related hydroperoxide lyase domain) (Capnella imbricata; F150L) (protein, N-terminal cHPL domain of the HPL-LOX fusion protein, without the LOX domain; cHPL-His4 in pET11a; E. coli BL21(DE3), Ni-NTA; heme protein; monomer 45 kDa plus oligomers 440-670 kDa) MVWKNFGYEIFAEKFGKDELEKRIKDEHTAPPESPLFGSLKLKMKKEKFKILFTLRTTMEGFRRPTHTVATGGLGEITIVSDPKFPEHEFYRAGRKFPARLRHANLKLLDDAGSDARSFSIKFADNDSESPMDIVMNTGEANIFWNTSSLEDFVSSSAGESAAKEYVYKNPYYYYYSIEALRRAPETFAHLYYYSQLTMHFKAKDGKVRYCRYRAIPGDADIKEEEESGRLTEEEQRNVWIRSRHQNEKRPDDYLRKEYVERLGKGPVNYRLQIQIHEASPDDTATIFHAGIMWNKETHPWFDLAKVSIKTPLSPDVLERTSFNIVNQPESLGLLEAKSPEDYNSIGQIRVAVYKWIQHLRKLKVGSLVPTGQN | 1.8 ± 0.4 | 49.6 ± 1.5 | 2.76e+07 |
| C. imbricata cHPL (catalase-related hydroperoxide lyase domain) (Capnella imbricata; E60K/M59L) (protein, N-terminal cHPL domain of the HPL-LOX fusion protein, without the LOX domain; cHPL-His4 in pET11a; E. coli BL21(DE3), Ni-NTA; heme protein; monomer 45 kDa plus oligomers 440-670 kDa) MVWKNFGYEIFAEKFGKDELEKRIKDEHTAPPESPLFGSLKLKMKKEKFKILFTLRTTLKGFRRPTHTVATGGLGEITIVSDPKFPEHEFYRAGRKFPARLRHANLKLLDDAGSDARSFSIKFADNDSESPMDIVMNTGEANIFWNTSSFEDFVSSSAGESAAKEYVYKNPYYYYYSIEALRRAPETFAHLYYYSQLTMHFKAKDGKVRYCRYRAIPGDADIKEEEESGRLTEEEQRNVWIRSRHQNEKRPDDYLRKEYVERLGKGPVNYRLQIQIHEASPDDTATIFHAGIMWNKETHPWFDLAKVSIKTPLSPDVLERTSFNIVNQPESLGLLEAKSPEDYNSIGQIRVAVYKWIQHLRKLKVGSLVPTGQN | 7.3 ± 1.9 | 7.5 ± 0.6 | 1e+06 |
| C. imbricata cHPL (catalase-related hydroperoxide lyase domain) (Capnella imbricata; I357V) (protein, N-terminal cHPL domain of the HPL-LOX fusion protein, without the LOX domain; cHPL-His4 in pET11a; E. coli BL21(DE3), Ni-NTA; heme protein; monomer 45 kDa plus oligomers 440-670 kDa) MVWKNFGYEIFAEKFGKDELEKRIKDEHTAPPESPLFGSLKLKMKKEKFKILFTLRTTMEGFRRPTHTVATGGLGEITIVSDPKFPEHEFYRAGRKFPARLRHANLKLLDDAGSDARSFSIKFADNDSESPMDIVMNTGEANIFWNTSSFEDFVSSSAGESAAKEYVYKNPYYYYYSIEALRRAPETFAHLYYYSQLTMHFKAKDGKVRYCRYRAIPGDADIKEEEESGRLTEEEQRNVWIRSRHQNEKRPDDYLRKEYVERLGKGPVNYRLQIQIHEASPDDTATIFHAGIMWNKETHPWFDLAKVSIKTPLSPDVLERTSFNIVNQPESLGLLEAKSPEDYNSIGQIRVAVYKWVQHLRKLKVGSLVPTGQN | 5.0 ± 1.0 | 63.9 ± 3.2 | 1.28e+07 |
| C. imbricata cAOS (cAOS-H4 domain) (Capnella imbricata) (protein, N-terminal cAOS domain of the AOS-LOX fusion protein, without the LOX domain; cAOS-H4 (His4 tag) in pET11a; E. coli BL21(DE3), Ni-NTA; heme protein; monomer) MTWKNFGFDIFAERFGKDKLEKRIKDERTPPPDSPVFGGLTLRMKIEKFKTLFTLGTTLKGFRRATHTVGTGGIGEVTVVDDPKFPEHEFFKAGRKLPVRLRHANLKYPDDAGADARSFSIKFSDNDSESPLDIVMNTGEANIFWHTSSLEDFVPVKEGDSAKEYVYKNPYYYYNLVEALRRAPNTFAHLYYYSQVTMHFKAKDGKERYCRYRAIPGDVDIKEEEESGRLTEEEQRNIWTFSRYETEKRPDDYLRKEYVERLKKGPVNYRLQIQIHDVSPNDTATIFHAGILWDKETHPWFDLAKVSITTPMSPDVLERTNFNIVNQPKSLGLLDAKSPEDYNSIGQIRVSVYNWVQHLRKLKLGSLIPAGQN | 46.6 ± 9.0 | 1840 ± 196 | 3.94e+07 |
| C. imbricata cAOS (cAOS-H4 domain) (Capnella imbricata; L150F) (protein, N-terminal cAOS domain of the AOS-LOX fusion protein, without the LOX domain; cAOS-H4 (His4 tag) in pET11a; E. coli BL21(DE3), Ni-NTA; heme protein; monomer) MTWKNFGFDIFAERFGKDKLEKRIKDERTPPPDSPVFGGLTLRMKIEKFKTLFTLGTTLKGFRRATHTVGTGGIGEVTVVDDPKFPEHEFFKAGRKLPVRLRHANLKYPDDAGADARSFSIKFSDNDSESPLDIVMNTGEANIFWHTSSFEDFVPVKEGDSAKEYVYKNPYYYYNLVEALRRAPNTFAHLYYYSQVTMHFKAKDGKERYCRYRAIPGDVDIKEEEESGRLTEEEQRNIWTFSRYETEKRPDDYLRKEYVERLKKGPVNYRLQIQIHDVSPNDTATIFHAGILWDKETHPWFDLAKVSITTPMSPDVLERTNFNIVNQPKSLGLLDAKSPEDYNSIGQIRVSVYNWVQHLRKLKLGSLIPAGQN | 6.7 ± 1.0 | 203 ± 8.1 | 3.03e+07 |

biological target: T1, C. imbricata cHPL (catalase-related hydroperoxide lyase domain) (Capnella imbricata, UniProt W8JJ08); assay: RP-HPLC radiometric product analysis; assay type: biochemical; details: 20 μM [1-14C]-AA-derived 8R-HpETE; labelled compound
T1 construct: gene AOS-LOXb; N-terminal cHPL domain of the HPL-LOX fusion protein, without the LOX domain; cHPL-His4 in pET11a; E. coli BL21(DE3), Ni-NTA; heme protein; monomer 45 kDa plus oligomers 440-670 kDa
T1 sequence (W8JJ08 entry or part of it): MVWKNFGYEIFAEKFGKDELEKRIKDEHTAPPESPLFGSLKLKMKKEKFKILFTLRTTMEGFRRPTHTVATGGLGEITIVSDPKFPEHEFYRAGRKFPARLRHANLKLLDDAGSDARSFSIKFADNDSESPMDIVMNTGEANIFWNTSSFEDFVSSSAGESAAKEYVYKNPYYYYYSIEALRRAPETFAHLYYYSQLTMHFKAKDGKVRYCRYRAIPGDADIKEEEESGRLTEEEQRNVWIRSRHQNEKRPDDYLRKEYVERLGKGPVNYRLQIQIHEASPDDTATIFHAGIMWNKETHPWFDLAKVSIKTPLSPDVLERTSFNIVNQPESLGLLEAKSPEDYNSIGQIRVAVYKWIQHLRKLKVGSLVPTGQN

| Molecule | RP-HPLC radiometric product analysis |
| --- | --- |
| CCCCC/C=C\C/C=C\C=C\[C@@H](C/C=C\CCCC(=O)O)OO [8R-HpETE] | Wt cHPL catalyzes the formation of C8-oxo acid and C12 aldehyde |
